Source: PMC4528139
“And” between values parts separate entries of the source, which are not always exact repeats. Equal values may be shown once.

Tests used:
[1] = molecular target: 40007 (clade CRF01 A-E) gp140 trimer, Strep-tag approach (HIV-1 strain 40007); test: not stated; trimers purified by the Strep-tag approach; manuscript in preparation
[2] = molecular target: Strep-tagged BG505 CR gp140 (uncleaved) (HIV-1 strain BG505); test: native gel or EMSA
[3] = molecular target: SF162 (clade B) gp140 trimer, Strep-tag approach (HIV-1 strain SF162); test: not stated; trimers purified by the Strep-tag approach; manuscript in preparation
[4] = molecular target: Strep-tagged JRFL CP664-gp140 (cleaved trimer) (HIV-1 strain JRFL); test: negative stain EM
[5] = molecular target: Strep-tagged JRFL CP664-gp140 (cleaved trimer) (HIV-1 strain JRFL); test: SEC + native gel or EMSA; Strep-Tactin-purified gp140 on Superdex 200 in 25 mM Tris-HCl pH 8, 150 mM NaCl; fractions on blue native PAGE; 293F- or GnTI−-produced
[6] = molecular target: Strep-tagged JRFL CP664-gp140 (cleaved trimer) (HIV-1 strain JRFL); test: native gel or EMSA
[7] = molecular target: JRFL foldon-gp140 (uncleaved foldon trimer) (HIV-1 strain JRFL | bacteriophage T4); test: SEC + native gel or EMSA
[8] = molecular target: Strep-tagged JRFL CR664-gp140 (uncleaved) (HIV-1 strain JRFL); test: negative stain EM
[9] = molecular target: Strep-tagged JRFL CR664-gp140 (uncleaved) (HIV-1 strain JRFL); test: SEC + native gel or EMSA; Strep-Tactin-purified gp140 on Superdex 200 in 25 mM Tris-HCl pH 8, 150 mM NaCl; fractions on blue native PAGE; 293F- or GnTI−-produced
[10] = molecular target: Strep-tagged JRFL CR664-gp140 (uncleaved) (HIV-1 strain JRFL); test: native gel or EMSA

**Q.** Which stoichiometry N [1] does the source give for “40007 (clade CRF01 A-E) gp140 trimer, Strep-tag approach (natural protein)” here?
**A.** The stoichiometry N was 3.

**Q.** Which stoichiometry N [2] does the source give for “Strep-tagged BG505 CR gp140 (uncleaved) (natural protein)” here?
**A.** Its stoichiometry N is 3.

**Q.** With “SF162 (clade B) gp140 trimer, Strep-tag approach (natural protein)” as the substance, how does the stoichiometry N [3] read?
**A.** Its stoichiometry N is 3.

**Q.** For “Strep-tagged JRFL CP664-gp140 (cleaved trimer) (complex)”, which stoichiometry N [4] is on record?
**A.** Its stoichiometry N is 3.

**Q.** What about the fold, fraction of gp140 recovered as trimers against uncleaved gp140 [5] of the same substance?
**A.** Its fold, fraction of gp140 recovered as trimers against uncleaved gp140 is 3 fold and 5 fold.

**Q.** And the stoichiometry N [5]?
**A.** Its stoichiometry N is 3.

**Q.** What about the stoichiometry N [6] of the same substance?
**A.** The stoichiometry N was 3.

**Q.** With “JRFL foldon-gp140 (uncleaved foldon trimer)” as the substance, how does the stoichiometry N [7] read?
**A.** Its stoichiometry N is 3.

**Q.** Which results are given for “Strep-tagged JRFL CR664-gp140 (uncleaved) (natural protein)”?
**A.** stoichiometry N [8]: 3; stoichiometry N [9]: 3; stoichiometry N [10]: 2 and 3
